# Experimental data published in publication PMC12449476, “Transient ligand contacts of the intrinsically disordered N-terminus of neuropeptide Y2 receptor regulate arrestin-3 recruitment” (Nature Communications, 2025).
# Where “and” joins values, the source holds several entries; their conditions need not be identical. Identical values can stand only once.
# Experiments:
# [1] = biological target: Y2R-eYFP D35–E39K (human) (UniProt P49146); assay: FRET or BRET; BRET between Nluc-arrestin-3 and Y2R-eYFP variants in live HEK293 cells, concentration-response to NPY, read 10 min after stimulation at 37 °C
# [2] = biological target: Tetramethylrhodamine-NPY (Tamra-NPY) (porcine); assay: fluorescence polarisation; fixed 50 nM Tamra-NPY, titrated with Y2R-loaded bicelles (x axis: log c, bicelles / M); empty bicelles as control
# [3] = biological target: Δ2–41 variant or charge reversal in the acidic patches (Nluc-Y2R-eYFP variants, ligand dissociation); assay: FRET or BRET; NanoBRET ligand dissociation from the low-affinity state: membranes pre-incubated with 300 nM K18-Tamra-NPY for 10 min, re-binding blocked by 50 µM JNJ-31020028, BRET decay for 20 min, one-phase dissociation fit
# [4] = biological target: Nluc-Y2R-eYFP D42A-S43A-T44A (human) (UniProt P49146); assay: FRET or BRET; NanoBRET equilibrium binding: dilution series of K18-Tamra-NPY on HEK293 membranes with Nluc-Y2R-eYFP variants, HBSS, 20 mM HEPES pH 7.4, 0.1% BSA, 10 min at room temperature; unspecific binding with 100 µM JNJ-31020028; biphasic fit (high- and low-affinity state)
# [5] = biological target: Nluc-Y2R-eYFP Δ2–41 (human) (UniProt P49146); assay: as above
# [6] = biological target: Neuropeptide Y (Homo sapiens) (UniProt P01303); details: cited from earlier work
# Chain of Nluc-Y2R-eYFP Δ2–41 (human) (P49146 other isoform, or with tags, fused parts or gaps): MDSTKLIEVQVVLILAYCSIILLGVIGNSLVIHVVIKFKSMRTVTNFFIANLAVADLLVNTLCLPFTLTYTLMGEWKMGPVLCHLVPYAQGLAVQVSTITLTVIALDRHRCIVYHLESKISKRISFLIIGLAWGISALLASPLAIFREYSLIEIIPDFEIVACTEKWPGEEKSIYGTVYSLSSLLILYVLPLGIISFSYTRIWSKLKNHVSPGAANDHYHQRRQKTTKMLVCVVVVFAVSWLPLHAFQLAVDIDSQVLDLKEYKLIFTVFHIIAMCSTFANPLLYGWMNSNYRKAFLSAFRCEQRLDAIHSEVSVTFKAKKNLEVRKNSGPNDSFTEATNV
# Chain of Y2R-eYFP D35–E39K (human) (P49146 whole entry E39K): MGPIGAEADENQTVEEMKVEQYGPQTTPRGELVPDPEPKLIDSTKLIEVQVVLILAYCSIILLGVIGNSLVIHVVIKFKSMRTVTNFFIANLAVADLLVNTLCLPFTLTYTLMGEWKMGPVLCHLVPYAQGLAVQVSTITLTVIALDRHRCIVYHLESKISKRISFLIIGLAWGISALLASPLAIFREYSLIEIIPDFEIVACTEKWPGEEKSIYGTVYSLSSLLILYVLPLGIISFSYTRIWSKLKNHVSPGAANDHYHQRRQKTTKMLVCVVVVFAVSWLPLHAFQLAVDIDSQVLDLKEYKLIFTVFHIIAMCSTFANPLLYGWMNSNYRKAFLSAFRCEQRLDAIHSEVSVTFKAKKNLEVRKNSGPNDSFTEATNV
# Chain of Nluc-Y2R-eYFP D42A-S43A-T44A (human) (P49146 whole entry D42A/S43A/T44A): as the sequence (P49146 whole entry E39K) above, with K39E, D42A, S43A, T44A counted along it
# Chain of Neuropeptide Y receptor type 2 (P49146 whole entry): as the sequence (P49146 whole entry E39K) above, with K39E counted along it
# Chain of lipid-reconstituted cysteine-deficient Y2R (Y2R-Δ6) (P49146 whole entry, stated change not applied): as the sequence (P49146 whole entry E39K) above, with K39E counted along it
substance,measurement,setting,value
Nluc-arrestin-3 (from UniProt P32121 1-409) (natural protein),BRETmax,[1],49%
lipid-reconstituted cysteine-deficient Y2R (Y2R-Δ6) (from UniProt P49146 1-381) (receptor),Kd,[2],44.5 nM
K18-Tamra-NPY (peptide),fold increase of ligand dissociation (koff) against wild-type Y2R,[3],2 fold and 3 fold
same,fold reduction of the affinity of the low-affinity state against wild-type Y2R,[4],3 fold
same,fold reduction of the low-affinity binding constant against wild-type Y2R,[5],2 fold
Neuropeptide Y receptor type 2 (from UniProt P49146),Kd,[6],300 nM
